# According to the DeepSol protein solubility set:
# Assay: soluble on expression in E. coli; label from the status in PepcDB or PDB records
row,Sequence,soluble on expression in E. coli
1,PTPKTELVQKFRVQYLGMLPVDRPVGMDTLNSAIENLMTSSSKEDWPSVNMNVADATVTVISEKNEEEVLVECRVRFLSFMGVGKDVHTFAFIMDTGNQRFECHVFWCEPNAANVSEAVQAACSGPSSGIEGRGSSGSSGSSGSSGDAAVTPEERHLSKMQQNGYENPTYKFFEQMQN,soluble
2,QTSIPTIFVGGDYARAFSTDGFVHRLTAAHLMTKGLVVHVSHAGHVTVQQFGPLKNNPTIQVIFADNHHAKRQARQFATVMQGLAKRYHVTRYNAVGHSSGGNIIFDYLTAQVPQRAQINKFVTIGSTYPGLTTQQLNRLPRSLPILNIAGHVWHTSGDGGVNLQAVLKFSHQLLAAGWSPKTQIIHGSPLTASHSMLHINPQVDLLIIQFLYGN,not soluble
3,MSLTPIEAMKLAAGEIAGEKSLKTLAEVVDILSQEQDVTKRFGQKGLGQRNLGRAVQLLVESSETNEGRCMVAYDVFKSLERIVLDYVPDQNDRAKYLEDLKIAKGLYRERIMTEMFNAYMDEPYAVKKDVMNYVNMIIGIDAESLGPDRMWKYKDPQTGELKALKIDERYVKNVEDRLGLKTDEQRESFRTSIRKIYGQKISVDSTYDFMDNLELVKAVTDVRLKSDIAGAGSLIGALANRTNEENQKLYDRMVDTMLKKLGYCRTCAQKTIEYFCTQEDEGHHHHHH,soluble
4,VDNARIDLRSKYYVKPKADHPWLTRRTQSHQQVKPPKLPKKKPDPDKKD,soluble
5,MSKVIIPKIVGHRGVGKEGLAPENTLRSFVLCMERNIPYIETDLRVCKTGEIVLFHGTPEGTIPFYKDGTSRIGDLSLEELKRLDVGGGHTIPSLEELFVAIEEQKFNLKLNLELKGEEWKRKESGDHQRLLLLVEKYHMQERVDYCSFHHEALAHLKALCPDVKITYLFNYMGQPTPLDFVEQTQKACYGDANGVSMLFHYLTKEQVCTAHEKGLSVTVWMPWIFDDSEEDWKKCLELQVDLICSNYPFGLMNFLSNISE,soluble
6,GPGSMQVINENSLREFYAHVYPVELVTQWLSYRLSQPRLSAGSSVAVVKGEPTAVSGEESKDGVRHVLGIKAEPCDAVGAAAGADDEDKEWLNGKGAAAAEGYLARREFCFTLIGDIFTRFRSYRSSEELRAELVRCFPEKIDVGAVYNIRPNQKQGLANVFPVERELVFDIDMSDYDNVRSCCSGKSICSYCWAWMSCAAHVLHTVLRDDFGFKYILPVFSGRRGIHLWVCDRRARRMTNDERTALVGYLTVVAPKTLRSTIVADLANHRLIHPTIRHVLRTQLDRAFTSLFVASSSDNPNNIQHHPTAAYIVHDATSAVLKLGRRDALNRFQQHVHFQQGNVLDWATYLRALGSEQEATDILHAVQLLLMYPRLDEHVSTRRDHLLKLPFCVHPGTASLCCPLEWDEVDGFHPTEDAPKLHEMLLSRSLDVRWTLPLERMLKDMRTDEDENSS,not soluble
7,LGLERDVSRAVELLERLQRSGELPPQKLQALQRVLQSRFCSAIREVYEQLYDTLDIT,soluble
8,RGRLKVFLGAAPGVGKTYAMLQAAHAQLRQGVRVMAGVVETHGRAETEALLNGLPQQPLLRTEYRGMTLEEMDLDALLKAAPSLVLVDELAHTNAPGSRHTKRWQDIQELLAAGIDVYTTVNVQHLESLNDQVRGITGVQVRETLPDWVLQEAFDLVLIDLPPRELLERLRDGKVYVPEQARAAIDAFFTQTNLTALREMAMQTAAAQVDNDLAQGYRQLGQSAP,soluble
9,MAAETKVQVSDPEAEFLNSKQETGYEWELFKENVRPLKRGRNVGILNHALKSHSDHQLRKNLIEKRRNLIEAIDEYEGDDPLSPWIECIKWVQEAFPPGGECSGLLVIYEQCVRKFWHSERYKDDLRYLKVWLEYAEHCADAEVIYKFLEVNEIGKTHAVYYIAYALHIEFKNKVKTANEIFNLGISRDAKPVEKLNDAYKKFMVRTMRRSNTADEEPKENNDLPSRSFGTLLSRGDNNARRQALGSSNPQAKKLKPNQSSKTPFAIYADAVSDTTSGNQPESDKSRPEFGSWLMLGGRAERNKENNSLPRKWASFKVPQKPIVRTVAAASASTFEVFVDEEECTEEEEEKKKNDETISSSSNVLPLNGGREIKKETELLRQNPLRHFPPNSFLR,not soluble
10,MSLDVKNLAKWKKVPPVSDRIANTFVALKMLREVDEEHNPVLFSKAHRDNIYTVIDISHESPVYNPASLEAGGIHYQKYPTVSKIPPTPDEVRDFIALVDRLQKEITEKMEKSNTSGAARLRPVVGVHCHYGFNRTGFLIVSYLIERCGFGVQEAIDEFEKRRPPGIRHAHFIDTLFVRYCVGLKRAPTEGHHHHHH,not soluble
11,MSALASKLFAKCAAGGRALQSQAVRQFSAYPIDDSMFGLNDEEIALRQSIRQFADKELAPYADKIDKDNGWDQLRPFWKKLGDQGLLGITAPAEYGGSGMNYFSHVIAMEELSRAAGGIALSYGAHSNLCINQIVRNGSEEQRKKYLPKLISGEHMGALAMSEAQAGSDVVSMKLRAEKKGDKYVLNGTKFWITNGPDADVLVVYAKTDPSKHQHGITCFLVEKNTPGFSQSPKLDKLGMRGSNTCELVFDNCEIHESQIMGGKGKGVYVLMTGLDYERLVLSGGPLGLMQAACDIAFDYAHQRTAFGQKIGSFQLLQGKLADMYTTLNASRSYLYMVAKAADKGNVSNKDCAGVILYVAEKCTQVCLDAIQILGGNGYINDYPAGRLLRDAKLYEIGAGTSEVRRLIIGRALNKEYSN,not soluble
12,GSHMDADGKLLTEGGENENLRKNASKKETSLFQGFKSYLPIAELAIENTERLNY,soluble
13,MRRGNRRTPGPVCRQAFRAEFTAIHAPVVFFMSCNRQIVRSLRQQIPSFECVPGCHDCCGPVTTSPEEMSRLPRKTAAEQEAAMDELNCVHLGPNGCTVYDERPLICRLFGTTPSLPCPNGRRPVEMIHPRVEKQIHDYMASTRQVLVLEHHHHHH,not soluble
14,MAHHHHHHMSAKLTVAVPRLASTVLLLARNPKHAISEQRPATGDNAARENDIHVLIMKRHGKARFMPGVYVFPGGGIEGSDYAAATHYLAEHYNLHLQDAADKKVTTQDFIESCGQPSAEEAELEAWACRVGALRELAEEAACVLRRDGCIFSEAEWIKWQKSRSDAGATGGASTDPVSSRPATLLPIYDLPAVSSLRPVARWVSPRQSRYRYDTYFYAALVNSALVSAEAHKAAHAPCSTQASSCDEANAGMGVRCIPPQELPLLEQASEVSELLWISPLEALRRHEDPSDVFSLAPPTYLLLHALSLQPSFASLAAAWAAAPASPEDPAAKPLGDLPHSSVLPCVEPLSTMTEDGRRIMKFVLPARYFHETGWSVAEGEYLFPGECCAGHRHFIHVFVGRAGATTGDGATADKPCTILH,not soluble
15,MPISELEKKWTGLTFEIAAEEMRRLKSEPTDRERLKLYALYKQALHGDIPNEDVYPVPAGDEVGRKKYAAWKSQKGANSEKCRADYVAIAEEMIKKYGRNIVRCKWNSEVWSVDY,soluble
16,GRKQEPFENVTLDVEEQHQGSVMQALGERKGDLKNMNPDGKGRVRLDYVIPSRGLIGFRSEFMTMTSGTGLLYSTFSHYDDVRPGEVGQRNNGVLISNGQGKAVAFALFGLQDRGKLFLGHGAEVYEGQI,not soluble
17,MKKKADFLELFAVEKPIIGVIHLKGKTDQEIQERAKKEIQIYSEHGVDAILMENYYGDYVQLEKALQYVTSLDLPIPIGVNVLNVDPLGFHLANKYHLQFLQIDSVVGHVKPRDEASLQAFFDLYRAKTTAKLIGGVRFKYQPMLSEKSVEEDLKIAQQRCDAIAVTENATGEETSLEKIKLFRKQLPEFPLIVAAGLNDKSVKEQLAICDAAIVGSNFKDTRKDTGDIYAPYVDSFMKIVKELRGELEHHHHHH,soluble
18,MSLQVEGLSINLATIREQCGFAEAVDVCLKHGITAIAPWRDQVAAIGLEEASRIVRSNGLKLTGLCRGGFFPAPDAAGREKAIDDNKRAVDEAAELGADCLVLVVGGLPGGSKNIDAARSMVLEGIAAVLPHARAAGVPLAIEPLHPMYAADRACVNTLGQALDICEALGPGVGAAIDVYHVWWDPDLNEQIARAGRMKAILAHHICDWLVPTKDMLTDRGMMGDGVIDLKAIRREVEAAGFHGAQEVEIFSADNWWKRPAEEVIATCVERYRSCCRDDEGHHHHHH,soluble
19,MNKNKPFIVVIVGPTASGKTELSIELAKRINGEIISGDSMQVYKHMNIGTAKVTPEEMDGIPHHLIDILNPDDTFSAYEFKRLAEDLITDITNRGKVPIIAGGTGLYIQSLIYNYELEDETVTPAQLSIVKQKLSALEHLDNQQLHDYLAQFDAVSAENIHPNNRQRVLRAIEYYLKTKKLLSNRKKVQQFTENYDTLLLGIEMSRKTLYSRINKRVDIMLDHGLFREVQQLVEQGYESCQSMQAIGYKELIPVINGQMIYEDAVNDLKQHSRQYAKRQMTWFKNKMSVHWLDKENMSLQMMLDEITTQIKMAGDPLEHHHHHH,not soluble
20,MPRLDLCAKRTTDQCTSRVRLATRKGLTKLLLCSRESSIFKDEDIEQDDLRSSRTPWAALPPPPIKPIADSFRCDALVIGAGITGALVAERLTRQGRQVVIIDRELPSLGSTVASTAMLLWETDRPLFELAQLYNFEKAVRCYRASHHAARGLLALVTDHGIACQMRPRLSLYLAVDDSPKLVRNEYALRSRADLPTLFLDRVELLNRFGIARAGALLSRDAADADPVRLTRGLLDVSLQRGARLLKANAVAYDSAASTVTVGLENGLSIEARHVVLATGYVMPNIVGSTSNQPASSWAIATRRRPNALWPEQALIWEATRNYHYARTTPDGRVIFGGEDDDAIIDPEARAAATPAKVRALKERLKALWPRASTEVAFTWSGAFDTTRDGLPLIGAVPGYRNILAAFGYGGNGITFSFLAAELLGTLLSGGSSPLLDVLALDRDLPANDAPSDSQALEHHHHHH,soluble
21,MGKTIAEKIFASHLVDEPFAGTKVLRLDVVMCHEITTPIAIADLMARGKDRVFDPTKIKAVIDHVTPSKDSKTATQAKMLRDWARRHGIVDFFDVGANGVCHALFPEKGFIRPGYTVIMGDSHTCTHGAFGAFAAGIGTTDLEVGILKGVCAFREPKT,not soluble
22,MAELILNQRPYPRDLGKIVCVGRNYAAHAKELNNPIPSSPILFIKPASSAVPFGPVFSIPKDQGSVHHELEIAILIGKALSRASTEQVAESIAGIGLGLDLTLRDVQDQLKEKGHPWERAKSFDGACPLTEFVAVNLASEDEWQAIGLTLEKNGQFQQQGSSAEMLFPILPLIAHMSEHFSLQPGDVILTGTPAGVGPLEVGDSLSAKLSLEDNVLLTCDGVVI,soluble
23,MSLQVWTKLFAKSPFKPLIKHAEVVVETVETLEKALEAWAKGDYEKMKELAVEVDRLEDVADRIKMELRESITAKLLMPVQRSDVLEYLHMQDKIADAAEDTAKWLLVRDRGNVPEDIKDIILKMGKESIRAAKLVYEAIKQMDMVVESGFSENEIKKEYDLIRQIEEVENKIDGLDTKLMRLVLNANISWTEGIYLLNIGRTISNISDKAKDAAERIRIMMSKEGHHHHHH,soluble
24,MSLNTPQSAIIPDHAQAGIFIEADFAANRLNDIKAACRASLDALTALKARFPDDILGLTIAFGSKAWATFGHTDEGSEIKPFSEMGNGLAPSTQHDMSIHIQSFRQNAAYALAQSVLGAFGDSICVASEEHGLRLYQDRGLDGFVDGTENPQGDENVREVAIIPEGKPDAGGSYVLLQKYLHDLKKWDAVPVAEQEASVGRGKETDDEFGRDVRLPDSHLGRVNLKENGVGLKIVRRSLPFGKISGEHGLMFTAYCRTLHNIEAQLLSMFGDTDGKTDLLLRHLSAAVSGGYYYAPSVERLQNLEGGSHHHHHH,soluble
